From PMC10889886 come the findings set out here.

For test [1], the target named is HCoV-229E Spike antigen (HCoV-229E) (UniProt P15423). As to the kind of experiment: […], PBS running buffer; […].
Test [2] addresses soluble SARS-CoV-2 Spike (S) (SARS-CoV-2). As to the kind of experiment: […], PBS running buffer; […].

For “HCoV-229E Spike antigen (from UniProt P15423 16-1173) (natural protein)”, in test [1], the stoichiometry N (commonly a count of units in the complex or per binding partner) stood at 3. Turning to “soluble SARS-CoV-2 Spike (S) (domain or fragment)”, the stoichiometry N in test [2] stood at 3.
